The data set concerns the target Q13093. The experiment in a line: estimated from dilution inactivation (residual CAM activity against enzyme concentration), self-association.

B1: recombinant lipoprotein-associated phospholipase A2 (rLp-PLA2) expressed in HEK293 cells (protein)
chain: FDWQYINPVAHMKSSAWVNKIQVLMAAASFGQTKIPRGNGPYSVGCTDLMFDHTNKGTFLRLYYPSQDNDRLDTLWIPNKEYFWGLSKFLGTHWLMGNILRLLFGSMTTPANWNSPLRPGEKYPLVVFSHGLGAFRTLYSAIGIDLASHGFIVAAVEHRDRSASATYYFKDQSAAEIGDKSWLYLRTLKQEEETHIRNEQVRQRAKECSQALSLILDIDHGKPVKNALDLKFDMEQLKDSIDREKIAVIGHSFGGATVIQTLSEDQRFRCGIALDAWMFPLGDEVYSRIPQPLFFINSEYFQYPANIIKMKKCYSPDKERKMITIRGSVHQNFADFTFATGKIIGHMLKLKGDIDSNVAIDLSNKASLAFLQKHLGLHKDFDQWDCLIEGDDENLIPGTNINTTNQHIMLQNSSGIEKYN
As for B1, the “concentration at which roughly half is monomer and half aggregate or oligomer” value was “At the concentration at 2.5 µg/ml or 53 nM, roughly half of rLp-PLA2 is in monomer and half forms the aggregate or oligomer as estimated”.

Values taken from patent publication US20160334404.
